According to patent US20040136985A1 (published 2004):

What was measured:
human plasma fibronectin [1] = target: T1, human plasma fibronectin (human, UniProt P02751-8 32-2296, limits assumed); assay: cell-based or functional assay
human plasma fibronectin [2] = target: T1, human plasma fibronectin; assay: competition ELISA, peptide 6 titrated 0-160 µM against FN binding to immobilized CD9
Method: FIG. 2C illustrates the effect of titrations of Peptide 6 (0-160 μM) on FN-CD9 binding was evaluated. […] The ability of CD9-CHO-B2 cells to adhere to FN was compared with Mock-CHOB2 cells. CD9-CHO-B2 cells had increased adhesion to FN in the absence of integrin α5β1 expression when compared to Mock-CHO-B2 cells. […] A scrambled control (peptide 6S) had no significant effect on CD9-CHO-B2 cell adhesion (p>0.005).
All incubation periods for the CD9/FN binding ELISA lasted two hours at RT unless otherwise indicated. Immulon I (Dynatech) microtiter plate wells were coated with CD9 (2 μg/ml), His₆-rCD9 (2 μg/ml), BSA (10 μg/ml), or peptide (10 μM) in Buffer A. After one wash with Buffer B, plates were blocked with Blocking Buffer 1.1% BSA was included in steps from ligand overlay to addition of mAb conjugate to minimize non-specific binding. Titrations of human plasma FN in Buffer B were added to plates either alone, or in the case of competition ELISAs, with 0-160 μM synthetic peptide. Plates were washed three times with ELISA Buffer B, followed by incubation with a 1/1000 dilution of rabbit anti-FN antibody. After two washes with Buffer B and one wash with Buffer C, plates were incubated with 1/500 antirabbit IgG alkaline phosphatase in Buffer C for one hour at RT. After four washes with Buffer C, 1 mg/mlp-nitrophenyl phosphate substrate was added and the absorbance at 405 nm was recorded.

T1 sequence (P02751 other isoform, or with tags, fused parts or gaps limits assumed): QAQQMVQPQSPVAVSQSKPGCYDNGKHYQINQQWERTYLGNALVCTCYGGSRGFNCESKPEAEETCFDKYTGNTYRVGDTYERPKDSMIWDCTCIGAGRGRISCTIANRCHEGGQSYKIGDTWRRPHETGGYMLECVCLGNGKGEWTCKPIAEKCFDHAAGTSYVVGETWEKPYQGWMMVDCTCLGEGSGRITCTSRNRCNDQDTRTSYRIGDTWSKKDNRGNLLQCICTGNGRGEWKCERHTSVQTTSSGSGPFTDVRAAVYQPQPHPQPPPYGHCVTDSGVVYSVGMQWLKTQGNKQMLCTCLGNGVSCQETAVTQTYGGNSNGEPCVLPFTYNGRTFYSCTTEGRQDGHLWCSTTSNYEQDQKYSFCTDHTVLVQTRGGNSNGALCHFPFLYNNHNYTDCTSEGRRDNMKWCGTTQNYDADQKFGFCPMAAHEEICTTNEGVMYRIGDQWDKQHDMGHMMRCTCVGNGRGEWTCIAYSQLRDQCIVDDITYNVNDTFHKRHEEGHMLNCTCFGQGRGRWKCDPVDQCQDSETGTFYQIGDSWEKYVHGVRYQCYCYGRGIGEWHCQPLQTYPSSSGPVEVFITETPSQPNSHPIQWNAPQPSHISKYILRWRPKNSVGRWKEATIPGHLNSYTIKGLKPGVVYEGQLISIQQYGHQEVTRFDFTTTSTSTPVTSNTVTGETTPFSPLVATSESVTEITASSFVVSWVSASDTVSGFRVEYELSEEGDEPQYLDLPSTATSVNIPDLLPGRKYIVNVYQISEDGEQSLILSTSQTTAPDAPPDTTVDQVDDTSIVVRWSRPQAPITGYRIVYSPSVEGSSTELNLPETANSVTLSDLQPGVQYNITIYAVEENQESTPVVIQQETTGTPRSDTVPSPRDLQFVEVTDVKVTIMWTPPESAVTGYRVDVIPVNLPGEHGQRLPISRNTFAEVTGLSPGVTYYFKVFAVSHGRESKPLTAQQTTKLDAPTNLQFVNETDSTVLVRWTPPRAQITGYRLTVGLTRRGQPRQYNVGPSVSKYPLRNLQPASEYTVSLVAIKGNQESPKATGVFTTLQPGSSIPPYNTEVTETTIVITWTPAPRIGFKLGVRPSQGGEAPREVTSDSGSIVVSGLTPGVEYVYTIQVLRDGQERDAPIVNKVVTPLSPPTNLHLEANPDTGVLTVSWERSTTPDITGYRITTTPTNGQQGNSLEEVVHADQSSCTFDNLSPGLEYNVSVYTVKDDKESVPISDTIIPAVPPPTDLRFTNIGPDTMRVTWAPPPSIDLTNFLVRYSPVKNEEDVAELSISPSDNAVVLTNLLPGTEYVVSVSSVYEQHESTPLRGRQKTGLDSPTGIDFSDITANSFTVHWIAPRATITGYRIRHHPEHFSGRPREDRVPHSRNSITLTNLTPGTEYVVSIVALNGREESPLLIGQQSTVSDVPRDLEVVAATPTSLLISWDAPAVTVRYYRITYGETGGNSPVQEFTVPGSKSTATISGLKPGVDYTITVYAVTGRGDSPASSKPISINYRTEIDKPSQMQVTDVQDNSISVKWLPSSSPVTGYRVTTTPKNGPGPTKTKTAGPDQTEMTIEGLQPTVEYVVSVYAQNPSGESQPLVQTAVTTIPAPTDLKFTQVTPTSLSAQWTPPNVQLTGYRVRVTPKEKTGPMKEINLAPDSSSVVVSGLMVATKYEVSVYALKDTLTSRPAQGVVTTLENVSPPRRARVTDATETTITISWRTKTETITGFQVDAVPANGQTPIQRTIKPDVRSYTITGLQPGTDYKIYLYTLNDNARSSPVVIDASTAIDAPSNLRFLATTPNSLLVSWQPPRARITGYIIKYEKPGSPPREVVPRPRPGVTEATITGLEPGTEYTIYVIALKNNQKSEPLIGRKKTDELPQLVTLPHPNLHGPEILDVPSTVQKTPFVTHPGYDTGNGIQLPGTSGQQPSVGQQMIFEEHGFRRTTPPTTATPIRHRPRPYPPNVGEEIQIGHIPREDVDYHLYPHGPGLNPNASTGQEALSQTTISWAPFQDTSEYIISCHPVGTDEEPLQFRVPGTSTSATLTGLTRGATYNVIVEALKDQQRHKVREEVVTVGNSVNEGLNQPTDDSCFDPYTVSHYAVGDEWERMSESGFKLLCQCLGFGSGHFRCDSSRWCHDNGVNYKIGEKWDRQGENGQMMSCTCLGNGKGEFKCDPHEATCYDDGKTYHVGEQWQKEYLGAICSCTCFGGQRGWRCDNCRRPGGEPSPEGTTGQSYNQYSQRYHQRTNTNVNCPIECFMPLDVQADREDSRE

reduction in haptotactic motility to FN (human plasma fibronectin [1]) [%] | IC50 (read off the curve) (human plasma fibronectin [2]) [µM] | Binder
64 |  | CD9 Δ133-192 (receptor) MPVKGGTKCIKYLLFGFNFIFWLAGIAVLAIGLWLRFDSQTKSIFEQETNNNNSSFYTGVYILIGAGALMMLVGFLGCCGAVQESQCMLGLFFGFLLVIFAIEIAAAIWGYSHKDEVIKEVQEFYKDTYNKLFHIIGAVGIGIAVVMIFGMIFSMILCCAIRRNREMV
45 |  | CD9 Δ173-192 (receptor) MPVKGGTKCIKYLLFGFNFIFWLAGIAVLAIGLWLRFDSQTKSIFEQETNNNNSSFYTGVYILIGAGALMMLVGFLGCCGAVQESQCMLGLFFGFLLVIFAIEIAAAIWGYSHKDEVIKEVQEFYKDTYNKLKTKDEPQRETLKAIHYALNCCGLAGGVEQFISDICPKKDVFHIIGAVGIGIAVVMIFGMIFSMILCCAIRRNREMV
58 |  | CD9 Δ113-228 (receptor) MPVKGGTKCIKYLLFGFNFIFWLAGIAVLAIGLWLRFDSQTKSIFEQETNNNNSSFYTGVYILIGAGALMMLVGFLGCCGAVQESQCMLGLFFGFLLVIFAIEIAAAIWGYS
 | ~20 | PKKDVLETFTVKSCPDAIKEVFDNK (Synthetic peptide of CD9 EC2) [peptide 6]
